# Laboratory results reported in patent US20240165214A1, “COMPOSITIONS AND METHODS FOR STABILIZATION OF ALLOSTERIC PROTEINS” (priority 2021, published 2024).
# T1: asialofetuin (UniProt P12763 19-359, oligosaccharides with terminal galactose (beta1-3))
# T1 construct: also called asialated fetuin
# T1 sequence (looked up): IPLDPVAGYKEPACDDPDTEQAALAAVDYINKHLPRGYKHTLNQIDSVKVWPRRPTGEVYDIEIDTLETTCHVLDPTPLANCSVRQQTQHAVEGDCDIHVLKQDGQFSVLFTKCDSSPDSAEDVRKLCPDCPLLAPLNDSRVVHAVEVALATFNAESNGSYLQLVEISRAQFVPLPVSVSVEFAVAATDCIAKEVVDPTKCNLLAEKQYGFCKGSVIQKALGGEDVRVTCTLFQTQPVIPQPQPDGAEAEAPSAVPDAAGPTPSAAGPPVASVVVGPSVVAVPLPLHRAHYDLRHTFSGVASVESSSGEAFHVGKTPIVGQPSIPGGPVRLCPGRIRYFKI
# Assays:
# fimbrial FimH = assay: mAb21 ELISA on fimbriae after αmm / Fab824 pre-treatment; format: binding, Escherichia coli; conditions: FimH^wt pre-treated with PBS only
# Source text: Bound antibodies were detected with a 1:5,000 diluted HRP-conjugated goat anti-mouse Fc antibody (Sigma-Aldrich). […] Binding of the latter antibody was detected using 1:5,000 diluted HRP-conjugated streptavidin (Invitrogen).
# yeast mannan = assay: FimH-dependent bacterial adhesion to yeast mannan (Example 7); format: cell-based; conditions: 1% mannose
# Protocol: FimH-dependent bacterial adhesion was analyzed as described previously. Briefly, Immulon 4HBX microtiter plates (Thermo Electron Corp.) were coated with 20 μg/mL of yeast mannan and plates were quenched with 0.2% BSA in PBS. Bacterial suspensions in PBS (OD540=2) were added to each well in a volume of 100 μl and incubated for 1 h at 37° C. After extensive washing, bound bacteria were stained with 0.1% (vol/vol) crystal violet for 20 min at room temperature and were washed several times with water. Then 100 μl of 50% (vol/vol) ethanol was added to each well, and the absorbance at a wavelength of 600 nm was measured. For inhibition, bacterial binding was tested in the presence of 1% mannose.
# [1] = target: FimH^wt (FimH adhesin of E. coli K12) (Escherichia coli K12) (UniProt P08191); assay: ELISA, mAb824 on FimH^wt fimbriae, without αmm
# [2] = target: FimH^FocH (Escherichia coli K12; Escherichia coli) (UniProt P08191); assay: ELISA, mAb824 on FimH^FocH fimbriae, with 1% αmm
# [3] = target: FimH^wt (FimH adhesin of E. coli K12) (Escherichia coli K12) (UniProt P08191); assay: ELISA, mAb824 on FimH^wt fimbriae, with 1% αmm
# [4] = target: FimH^FocH (Escherichia coli K12; Escherichia coli) (UniProt P08191); assay: ELISA, mAb824 on FimH^FocH fimbriae, without αmm
# [5] = target: FimH^FocH (Escherichia coli K12; Escherichia coli) (UniProt P08191); assay: cell-based or functional assay
# [6] = target: FimH^wt (FimH adhesin of E. coli K12) (Escherichia coli K12) (UniProt P08191); assay: cell-based or functional assay
# [7] = target: horseradish peroxidase (HRP) (horseradish) (UniProt P00433); assay: time course of soluble HRP on fimbriae pre-treated with mAb824
# horseradish peroxidase (HRP) (horseradish), sequence (P00433 31-338): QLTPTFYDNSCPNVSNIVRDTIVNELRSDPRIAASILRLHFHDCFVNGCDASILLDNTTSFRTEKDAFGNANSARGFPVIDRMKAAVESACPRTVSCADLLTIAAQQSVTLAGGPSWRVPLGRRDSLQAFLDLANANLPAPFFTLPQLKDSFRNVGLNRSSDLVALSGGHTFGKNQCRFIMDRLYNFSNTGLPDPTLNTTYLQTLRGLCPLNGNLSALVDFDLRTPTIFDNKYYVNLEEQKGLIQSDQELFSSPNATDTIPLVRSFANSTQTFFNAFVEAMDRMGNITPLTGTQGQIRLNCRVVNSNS
# asialofetuin = target: T1, asialofetuin; assay: adhesion of bacteria expressing the FmlH variant to surface-coated asialofetuin, crystal violet, absorbance 600 nm
# Protocol: Briefly, Immulon 4HBX microtiter plates (Thermo Electron Corp.) were coated with 20 μg/mL of asialofetuin (Sigma-Aldrich) and plates were quenched with 0.2% BSA in PBS. Bacterial suspensions in PBS (OD540=2) were added to each well in a volume of 100 μl and plates were spun for 2 min at 750×g. After extensive washing, bound bacteria were stained with 0.1% (vol/vol) crystal violet for 20 min at room temperature and were washed several times with water. Then 100 μl of 50% (vol/vol) ethanol was added to each well, and the absorbance at a wavelength of 600 nm was measured. For inhibition, bacterial binding was tested in the presence of 1% galactose (Sigma).
# Briefly, Immulon 4HBX microtiter plates (ThermoFisher Scientific) were coated with 20 μg/mL of asialofetuin (Sigma-Aldrich) and plates were quenched with 0.2% BSA in PBS. Bacterial suspensions in PBS (OD540=2) were added to each well in a volume of 100 μl and plates were spun for 2 min at 750×g. After extensive washing, bound bacteria were stained with 0.1% (vol/vol) crystal violet for 20 min at room temperature and were washed several times with water. Then 100 μl of 50% (vol/vol) ethanol was added to each well, and the absorbance at a wavelength of 600 nm was measured. For inhibition, bacterial binding was tested in the presence of 1% galactose (Sigma).
molecule,measurement,setting,value
α-methyl-D-mannopyranoside [αmm],αmm concentration at plateau of mAb21 binding,fimbrial FimH,0.1-1.0 % αmm
same,inhibition of bacterial adhesion to yeast mannan-coated surface,yeast mannan,> 95%
mAb824 (antibody),EC50 (read off the curve),[1],20 pM
same,EC50 (read off the curve),[2],20 pM
same,EC50 (read off the curve),[3],20 pM
same,EC50 (read off the curve),[4],20 pM
same,RBC agglutination: time (in min) upon which noticeable aggregation of RBC was observed,[5],> 60 min
same,RBC agglutination: time (in min) upon which noticeable aggregation of RBC was observed,[6],> 60 min
FimH^FocH (from UniProt P08191 22-300),fold decrease in the rate of binding with mAb824 against untreated,[7],> 10 fold
"FmIH^wt (full-length wild-type FmlH adhesin) (other, Escherichia coli CFT073, domain: pilin domain; Expressed on bacteria in the type 1 fimbrial background) FSCNVDGGSSIGAGTTSVYVNLDPVIQPGQNLVVDLSQHISCWNDYGGWYDTDHINLVQGSAFAGSLQSYKGSLYWNNVTYPFPLTTNTNVLDIGDKTPMPLPLKLYITPVGAAGGVVIKAGEVIARIHMYKIATLGSGNPRNFTWNIISNNSVVMPTGGCTVDSRNVTVDLPDFPGSAEIPLGVYCSSEQKLSFYLSGATTDSSRQVFANTAPDATKASGVGVTLMRNGKILATGENVSLGTVNKSKVPLGLSATYGQTGNKVSAGTVQSVIGVTFIYE",binding result,asialofetuin,no binding
